Source: PMC7059301

Target: Aspergillus niger α-xylosidase AxlA (Aspergillus niger)
Test: crystal structure

For “Aspergillus niger α-xylosidase AxlA (enzyme)”, the stoichiometry N was 4.
